Measured values: patent US20210403579A1 (DELINIA, published 2021)
Changes are numbered by the printed parent chain.

T1: Mouse ST2 (mouse, UniProt P14719 27-332, limits assumed)
T1 construct: also called mouse ST2 protein
T1 sequence (looked up): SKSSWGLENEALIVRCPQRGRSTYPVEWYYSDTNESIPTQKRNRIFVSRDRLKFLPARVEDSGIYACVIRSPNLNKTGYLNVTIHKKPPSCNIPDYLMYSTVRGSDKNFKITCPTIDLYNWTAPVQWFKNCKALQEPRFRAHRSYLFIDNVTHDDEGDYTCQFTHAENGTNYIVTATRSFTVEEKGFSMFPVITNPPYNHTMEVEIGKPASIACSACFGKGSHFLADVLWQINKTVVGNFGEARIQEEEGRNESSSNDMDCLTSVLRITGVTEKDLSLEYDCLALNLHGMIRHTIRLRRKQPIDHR

T2: Human ST2 (human, UniProt Q01638 19-328, limits assumed)
T2 construct: also called human ST2 protein; Interleukin 1 receptor-like 1
T2 sequence (looked up): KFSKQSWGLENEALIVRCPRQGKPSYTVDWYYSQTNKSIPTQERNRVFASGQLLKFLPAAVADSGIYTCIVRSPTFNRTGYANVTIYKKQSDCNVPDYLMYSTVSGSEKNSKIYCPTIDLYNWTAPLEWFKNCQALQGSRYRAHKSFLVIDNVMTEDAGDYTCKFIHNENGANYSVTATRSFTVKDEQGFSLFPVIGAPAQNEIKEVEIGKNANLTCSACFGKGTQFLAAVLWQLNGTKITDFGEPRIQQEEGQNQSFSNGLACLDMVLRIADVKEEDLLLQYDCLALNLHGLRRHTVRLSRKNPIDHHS

B1: Human ST2 IgG1 Antibody 30 (antibody, V domains shown)
VH: QVQLVQSGAEVKKPGSSVKVSCKASGYTFTTYGITWVRQAPGQGLEWMGGIIPIFGTANYAQKFQGRVTITADESTSTAYMELSSLRSEDTAVYYCAKLSGSSGSWDYYYYYGMDVWGQGTLVTVSS
VL: DIVMTQSPLSLPVTPGEPASISCRSSQSLLHSNGYNYLDWYLQKPGQSPQLLIYAASNLQSGVPDRFSGSGSGTDFTLKISRVEAEDVGVYYCMQALQTPITFGQSTRLEIKR
notes: IgG1, kappa; also called ST2 Antibody 30
B2: Human ST2 IgG1 Antibody 35 (antibody, V domains shown)
VH: QVQLVQSGAEVKKPGASVKVSCKASAYTFTSYGISWLRQAPGQGLEWMGWINPNSGNTGYAHKFQGRVTMTRDTSTSTVYMELSSLRSEDTAVYYCARGGSGWPTWGQGTLVTVSS
VL: DIQMTQSPSSLSASVGDRVTITCQASQDISNYLNWYQQKPGKAPKLLIYGASSLQSGVPSRFSGSGSGTDFTLTISSLQPEDFATYYCQQANTFPFTFGPGTKVDIKR
notes: IgG1, kappa; also called ST2 Antibody 35
B3: Human ST2 IgG1 Antibody 20 (antibody, V domains shown)
VH: EVQLLESGAEVKKPGSSVKVSCKASGGTFSSYAISWVRQAPGQGLEWMGGIIPIFGTANYAQKFQGRVTITADESTSTAYMELSSLRSEDTAVYYCASGFYSNDLYYYYYMDVWGKGTTVTVSS
VL: DIQMTQSPSSLSASVGDRVTITCRASQSISSWLAWYQQKPGKAPKLLIYDASNLKTGVPSRFSGSGSGTDFTLTISSLQPEDFATYYCQQTYAIPLTFGGGTKVEIKR
notes: IgG1, kappa; also called ST2 Antibody 20
B4: Human ST2 IgG1 Antibody 21 (antibody, V domains shown)
VH: QVQLVQSGAEVKKPGASVKVSCKASGYTFSNHYMHWVRQAPGQGLEWMGWVNPTSGNTGYAQKFQGRVTMTRDTSTSTVYMELSSLRSEDTAVYYCARDLGVTYFDLWGRGTLVTVSS
VL: B3 VL with S28G, D50E, N53H, K55E, Q89L, T91D, A93N, I94Y
notes: IgG1, kappa; also called ST2 Antibody 21
B5: Human ST2 IgG1 Antibody 29 (antibody, V domains shown)
VH: QVQLVQSGAEVKKPGASVKVSCKASGGTFTGYFIHWVRQAPGQGLEWMGWMNPNSGNTGYAQKFQGRVTMTRDTSTSTVYMELSSLRSEDTAMYYCAREGQGVVPVDYWGQGTLVTVSS
VL: B3 VL with S52T, K55E, Q89L, T91D, A93N, I94Y, G100Q, G101S
notes: IgG1, kappa; also called ST2 Antibody 29
B6: Human ST2 IgG1 Antibody 25 (antibody, V domains shown)
VH: QVQLVQSGAEVKKPGSSVKVSCKASGGTFSNYAISWVRQAPGQGLEWMGWISAYNGNTNYAQKFQGRVTMTRDTSTSTVYMELSSLRSEDTAVYYCARSTNALDYWGQGTLVTVSS
VL: DIQMTQSPSSLSASVGDRVTITCRASQGIRSNLDWYQQKPGKAPKLLISIVSNLGSGVPSRFSGSGSGTDFTLTISSLQPEDFATYYCLQHNSNPPTFGGGTKVEIKR
notes: IgG1, kappa; also called ST2 Antibody 25
B7: Human ST2 IgG1 Antibody 38 (antibody, V domains shown)
VH: QVQLVQSGAEVKKPGSSVKVSCKASGGTFSSYAISWVRQAPGQGLEWMGTIIPMFGIADYAQKFQGRVTITADESTSTAYMELSSLRSEDTAVYYCARSSRSSSWYNWYFDLWGRGTLVTVSS
VL: EIVMTQSPATLSVSPGERATLSCRASQSISSSYLAWYQQKPGQAPRLLIYGASTRATGIPARFSGSGSGTEFTLTISSLQSEDFAVYYCQQYYTTPWTFGQGTKVEIKR
notes: IgG1, kappa; also called ST2 Antibody 38
B8: Human ST2 IgG1 Antibody 16 (antibody, V domains shown)
VH: QVQLVQSGAEVKKPGASVKVSCKASGYTFTSHYMHWVRQAPGQGLEWMGIINPSGGSTSYAQKFQGRVTMTRDTSTSTVYMELSSLRSEDTAVYYCARAGIGYLAAHDLYYYYGMDVWGRGTLVTVSS
VL: EIVMTQSPATLSVSPGERATLSCRASQSVSSNFAWYQQKPGQAPRLLIYGASTRATGIPARFSGSGSGTEFTLTISSLQSEDFAVYYCQQYYSTPYTFGQGTKVEIKR
notes: IgG1, kappa; also called ST2 Antibody 16
B9: Human ST2 IgG1 Antibody 9 (antibody, V domains shown)
VH: EVQLLESGGGLVQPGGSLRLSCAASGFAFSSHWMHWVRQAPGKGLEWVATISSGSHSIHYADSVKGRFTISRDNSKNTLYLQMNSLRAEDTAVYYCAREAGTSYYYYGMDVWGKGTTVTVSS
VL: B2 VL with S30R, G50K, Q55E, A91S, N92Y, T93S, F94T, F96P, P100G, D105E
notes: IgG1, kappa; also called ST2 Antibody 9
B10: Human ST2 IgG1 Antibody 19 (antibody, V domains shown)
VH: EVQLLESGGGLVQPGGSLRLSCAASGFSFSHAWMSWVRQAPGKGLEWVSVIHSGGSTFYADSVKGRFTISRDNSKNTLYLQMNSLRAEDTAVYYCARIGKGGGFDYWGQGTLVTVSS
VL: DIQMTQSPSSLSASVGDRVTITCRASQDIGSWLAWYQQKPGKAPKLLIYAASSLQSGVPSRFSGSGSGTDFTLTISSLQPEDFATYYCQQSYSTPPTFGQGTKVEIKR
notes: IgG1, kappa; also called ST2 Antibody 19
B11: Human ST2 IgG1 Antibody 34 (antibody, V domains shown)
VH: QVQLVQSGAEVKKPGASVKVSCKASGQTFTDYAINWVRQAPGQGLEWMGWMNPNSGNTGYAQKFQGRVTMTRDTSTSTVYMELSSLRSEDTAVYYCARETLEQQLPFDYWGQGTLVTVSS
VL: B10 VL with D28S, G30S, S53T, S91Y, P95L, P96Y
notes: IgG1, kappa; also called ST2 Antibody 34
B12: Human ST2 IgG1 Antibody 93 (antibody, V domains shown)
VH: QVQLVQSGAEVKKPGSSVKVSCKASGGTFSTYAISWVRQAPGQGLEWMGGIIPSFNAPSYAQKFQGRVTITADKSTSTAYMELSSLRSEDTAVYYCARVVPAAIVGWYFDLWGRGTLVTVSS
VL: B1 VL with N58T, S61T, I101P, S106G, R108K, L109V
notes: IgG1; also called ST2 Antibody 93
B13: Human ST2 IgG1 Antibody 96 (antibody, V domains shown)
VH: QVQLVQSGAEVKKPGSSVKVSCKASGFSFSTYGVAWVRQAPGQGLEWMGGFVPIIGSANYAQKFQGRVTITADESTSTAYMELSSLRSEDTAVYYCARDYGGNLDYWGQGTLVTVSS
VL: B1 VL with N58S, A96G, L97A, Q98H, T99W, I101P, S106G, R108K, L109V
notes: IgG1; also called ST2 Antibody 96
B14: Human ST2 IgG1 Antibody 95 (antibody, V domains shown)
VH: QVQLVQSGAEVKKPGSSVKVSCKASGYTFTSYGISWVRQAPGQGLEWMGGIIPIFGTANYAQKFQGRVTITADESTSTAYMELSSLRSEDTAVYYCARVMARRDGYNFKGGWYFDLWGRGTLVTVSS
VL: B1 VL with N58S, Q98E, I101P, S106G, R108K
notes: IgG1; also called ST2 Antibody 95
B15: Human ST2 IgG1 Antibody 94 (antibody, V domains shown)
VH: QVQLVQSGAEVKKPGSSVKVSCKASGGILNSYAITWVRQAPGQGLEWMGRIIPILGIANYAQKFQGRVTITADESTSTAYMELSSLRSEDTAVYYCVENESGPLFDYWGQGTLVTVSS
VL: B7 VL with I29V, S30Y, A52T, T54S, T57A, T94S, W97Y
notes: IgG1; also called ST2 Antibody 94
B16: Human ST2 IgG1 Antibody 99 (antibody, V domains shown)
VH: EVQLLESGGGLVQPGGSLRLSCAASGFTFSDYYMNWVRQAPGKGLEWVSTISGFGESTFYADSVKGRFTISRDNSKNTLYLQMNSLRAEDTAVYYCARLGAARAFDIWGQGTTVTVSS
VL: B10 VL with D28S, L33M, S53T, S93T, P96I, Q100P, E105D
notes: IgG1; also called ST2 Antibody 99
B17: Human ST2 IgG1 Antibody 98 (antibody, V domains shown)
VH: EVQLLESGGGLVKPGGSLRLSCAASGFTFSSYWMSWVRQAPGKGLEWVSAISGTAINTYYADSVKGRFTISRDDSKNTLYLQMNSLKTEDTAVYYCARVRRDSSGGGAFDIWGQGTMVTVSS
VL: B10 VL with D28G, G30S, S31N, W32N, A34N, S56T
notes: IgG1; also called ST2 Antibody 98
B18: Human ST2 IgG1 Antibody 100 (antibody, V domains shown)
VH: EVQLLESGGGLVQPGGSLRLSCAASGFTFSNYAMAWVRQAPGKGLEWVSWISGSGSYIYYADSVKGRFTISRDNSKNTLYLQMNSLRAEDTAVYYCARRGSSWSNFDYWGQGTLVTVSS
VL: B10 VL with D28T, G30S, S31T, W32Y, A34N, A50D, S53N, Q55E, S56T, P96I
notes: IgG1; also called ST2 Antibody 100

These binders were tested against T1, Mouse ST2 (assay: SPR (Carterra), antibody immobilized, ST2 analyte, 1:1).
Protocol: (§1) Binding of the reformatted human ST2 antibodies to the human and mouse ST2 proteins was evaluated by surface plasmon resonance (SPR), using a high throughput antibody screening and characterization platform from Carterra (Salt Lake City, Utah).

Kd [µM]	koff [s⁻¹]	kon [M⁻¹ s⁻¹]	Binder
2.7	0.13	48000	B1
0.107	0.018	170000	B2
2.2	0.17	77000	B3
0.999	0.0085	8500	B4
0.751	0.0045	5900	B5
0.322	0.064	200000	B6
0.529	0.09	170000	B7
0.315	0.1	320000	B8
0.351	0.032	91000	B9
0.311	0.11	370000	B10
0.126	0.0019	15000	B11

What follows are binders tested against T2, Human ST2 (assay: SPR (Carterra), antibody immobilized, ST2 analyte).
Protocol: as §1

Kd [µM]	koff [s⁻¹]	kon [M⁻¹ s⁻¹]	Binder
0.728	0.11	150000	B12
0.337	0.097	290000	B13
0.446	0.0086	19000	B14
0.483	0.062	130000	B15
0.192	0.089	460000	B16
0.095	0.025	270000	B17
0.342	0.074	220000	B18
